Measured values: JP2019156807A
“And” between values parts separate entries of the source, which are not always exact repeats. Equal values may be shown once.

Molecular target: 変性ヒトCD26(ホルマリン固定パラフィン包埋した細胞・組織中、又はSDS/DTT煮沸処理した細胞溶解物中のヒトCD26) (human) (UniProt P27487)
Test: immunostaining of FFPE samples, titration of purified antibody (data not shown)

Chain of UniProt P27487 (P27487 whole entry): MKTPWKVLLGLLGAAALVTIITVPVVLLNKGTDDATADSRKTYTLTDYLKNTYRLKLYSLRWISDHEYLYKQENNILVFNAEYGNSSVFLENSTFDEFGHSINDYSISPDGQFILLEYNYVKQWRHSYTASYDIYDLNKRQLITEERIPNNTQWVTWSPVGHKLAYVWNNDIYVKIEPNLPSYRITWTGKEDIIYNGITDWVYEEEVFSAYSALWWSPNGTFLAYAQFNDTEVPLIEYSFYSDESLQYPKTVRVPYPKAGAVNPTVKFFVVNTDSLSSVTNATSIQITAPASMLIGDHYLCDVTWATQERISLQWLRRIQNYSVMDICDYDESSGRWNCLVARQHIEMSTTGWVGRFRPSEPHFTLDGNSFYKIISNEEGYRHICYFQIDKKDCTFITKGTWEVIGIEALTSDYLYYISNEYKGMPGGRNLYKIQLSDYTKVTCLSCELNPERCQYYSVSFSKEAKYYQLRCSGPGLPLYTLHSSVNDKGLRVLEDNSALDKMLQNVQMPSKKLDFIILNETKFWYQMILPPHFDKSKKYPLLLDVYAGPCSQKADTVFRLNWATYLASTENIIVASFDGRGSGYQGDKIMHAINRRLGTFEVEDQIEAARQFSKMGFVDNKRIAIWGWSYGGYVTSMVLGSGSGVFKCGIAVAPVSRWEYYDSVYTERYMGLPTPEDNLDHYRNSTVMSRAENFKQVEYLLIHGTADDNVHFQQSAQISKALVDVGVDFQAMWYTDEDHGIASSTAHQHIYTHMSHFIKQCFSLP

| Binder | 免疫染色の最適濃度 |
| --- | --- |
| 抗ヒトCD26モノクローナル抗体U16−3 (antibody, V domains shown) VH: EVKLVESGGGLVQPGGSLKLSCATSGFTFSDFYMYWVRQTPEKRLEWVAYISKGGGTTSYPDTVKGRFTISRDNAKNTLYLQLSRLKAEDSAMYYCARRMDYWGQGTSVTVSS VL: DVQMNQSPSSMYASLGERVTITCKASQDINSYLSWFQQKPGKSPKTLIYRANRLVDGVPSRFSGSGSGQDYSLTISSLDYEDMGIYYCLQYDEFPLTFGAGTKLELK | 0.1 μg/mL and 0.2 μg/mL |
| 抗ヒトCD26モノクローナル抗体U38−8 (antibody, V domains shown) VH: EVKLVESGGGLVQPGGSLKLSCATSGFTFSDFYMYWVRQTPEKRLEWVAYISKGGGTTSYPDTVKGRFTISRDNAKNTLYLQLSRLKAEDSAMYYCARRMDYWGQGTSVTVSS VL: DVVVTQTPLSLPVSLGDQASISCRSSQGLEHSSGNTYLHWYLQRPGQSPKLLIYKVSNRFSGVPDRFSGSGSGTDFTLKISRVEAEDLGVYFCSQSTPVPTWTFGGGTKLEIK | 0.5 μg/mL |
